Measured values published in publication PMC4440733 (PLoS ONE, 2015).

Legend:
[1] = molecular target: T1, His-tagged ErbB3 protein (Homo sapiens (species , human …, UniProt P21860)); assay: ELISA; plates coated with anti-his antibody; His-tagged EGFR or ErbB3 captured in PBS with 1% BSA, 1 h RT; gradient-diluted antibodies or DVD-Ig proteins 1 h RT; detected with HRP-conjugated goat-anti-human antibodies; details: both partners purified
T1 construct: Receptor tyrosine-protein kinase ErbB3; also called receptor tyrosine-protein kinase 3; source: bought: Invitrogen
T1 sequence (P21860 20-643): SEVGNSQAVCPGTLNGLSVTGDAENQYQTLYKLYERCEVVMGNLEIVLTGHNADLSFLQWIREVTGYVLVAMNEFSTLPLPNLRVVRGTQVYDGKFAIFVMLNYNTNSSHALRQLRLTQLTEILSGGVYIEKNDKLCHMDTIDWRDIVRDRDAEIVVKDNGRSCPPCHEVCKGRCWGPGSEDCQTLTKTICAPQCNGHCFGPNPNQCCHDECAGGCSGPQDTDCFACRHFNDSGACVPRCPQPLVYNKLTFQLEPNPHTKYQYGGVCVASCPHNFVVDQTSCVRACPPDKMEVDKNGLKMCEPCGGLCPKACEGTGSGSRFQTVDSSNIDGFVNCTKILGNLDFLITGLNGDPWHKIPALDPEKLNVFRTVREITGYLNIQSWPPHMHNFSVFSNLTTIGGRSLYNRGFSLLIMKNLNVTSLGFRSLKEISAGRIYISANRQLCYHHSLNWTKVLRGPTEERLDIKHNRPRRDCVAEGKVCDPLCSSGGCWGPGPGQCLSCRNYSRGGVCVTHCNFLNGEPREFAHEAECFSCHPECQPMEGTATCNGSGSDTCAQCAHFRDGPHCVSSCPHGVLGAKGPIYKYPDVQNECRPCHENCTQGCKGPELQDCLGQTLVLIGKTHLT

[2] = molecular target: T2, His-tagged EGFR protein (Homo sapiens (species , human …, UniProt P00533)); assay: as above; details: both partners purified
T2 construct: Epidermal growth factor receptor (EGFR); also called epidermal growth factor receptor; source: bought: Invitrogen

EC50 [1]: 5.7 nM
EC50 [2]: 1.3 nM
B1: anti-EGFR/ErbB3 bispecific Ab (bsAb), generated from published MEHD7945A sequences (bispecific antibody, V domains shown)
VH: EVQLVESGGGLVQPGGSLRLSCAASGFTLSGDWIHWVRQAPGKGLEWVGEISAAGGYTDYADSVKGRFTISADTSKNTAYLQMNSLRAEDTAVYYCARESRVSFEAAMDYWGQGTLVTVSS
VL: DIQMTQSPSSLSASVGDRVTITCRASQNIATDVAWYQQKPGKAPKLLIYSASFLYSGVPSRFSGSGSGTDFTLTISSLQPEDFATYYCQQSEPEPYTFGQGTKVEIK
notes: also called anti-EGFR/ErbB3 bsAb; two-in-one antibody; source: human embryonic kidney 293 cells, transient, purified (protein A)
